From article PMC5070869, “Secretion-Positive LGI1 Mutations Linked to Lateral Temporal Epilepsy Impair Binding to ADAM22 and ADAM23 Receptors” (PLoS Genetics, 2016)

T1: HA-ADAM22 (UniProt Q9P0K1 223-906)
T1 construct: ADAM22 (A Disintegrin And Metalloprotease domain 22) receptor, cDNA; In the HEK293T lysates it is present in both immature (110 kDa) and mature (90 kDa) forms; also called HA-tagged ADAM22; HA-fused ADAM22; source: COS7, co-transfected, on cells (immunofluorescence); HEK293T, co-transfected, in lysate (co-IP)
T1 sequence (looked up): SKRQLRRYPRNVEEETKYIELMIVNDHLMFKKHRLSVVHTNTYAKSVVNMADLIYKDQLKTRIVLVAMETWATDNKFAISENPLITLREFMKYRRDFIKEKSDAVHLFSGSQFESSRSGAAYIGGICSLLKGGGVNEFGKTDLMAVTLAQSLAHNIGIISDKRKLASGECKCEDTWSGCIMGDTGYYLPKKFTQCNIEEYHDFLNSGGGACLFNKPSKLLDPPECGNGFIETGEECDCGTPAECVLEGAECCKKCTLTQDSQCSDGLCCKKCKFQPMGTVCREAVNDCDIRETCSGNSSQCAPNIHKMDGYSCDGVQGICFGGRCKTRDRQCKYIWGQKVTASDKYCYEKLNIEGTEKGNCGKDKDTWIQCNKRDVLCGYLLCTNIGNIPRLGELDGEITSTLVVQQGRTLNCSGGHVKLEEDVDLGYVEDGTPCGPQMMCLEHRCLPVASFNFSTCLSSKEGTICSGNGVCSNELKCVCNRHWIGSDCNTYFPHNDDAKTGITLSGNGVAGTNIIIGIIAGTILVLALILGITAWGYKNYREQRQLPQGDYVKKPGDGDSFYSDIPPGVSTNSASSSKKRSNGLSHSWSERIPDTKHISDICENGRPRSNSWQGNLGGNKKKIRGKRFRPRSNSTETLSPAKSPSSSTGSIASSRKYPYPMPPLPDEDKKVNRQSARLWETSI

T2: HA-ADAM23 (UniProt O75077 287-832)
T2 construct: ADAM23 (A Disintegrin And Metalloprotease domain 23) receptor, cDNA; Expression of HA-ADAM23 in HEK293T was lower than that of HA-ADAM22; also called HA-tagged ADAM23; HA-fused ADAM23; source: COS7, co-transfected, on cells (immunofluorescence); HEK293T, co-transfected, in lysate (co-IP)
T2 sequence (looked up): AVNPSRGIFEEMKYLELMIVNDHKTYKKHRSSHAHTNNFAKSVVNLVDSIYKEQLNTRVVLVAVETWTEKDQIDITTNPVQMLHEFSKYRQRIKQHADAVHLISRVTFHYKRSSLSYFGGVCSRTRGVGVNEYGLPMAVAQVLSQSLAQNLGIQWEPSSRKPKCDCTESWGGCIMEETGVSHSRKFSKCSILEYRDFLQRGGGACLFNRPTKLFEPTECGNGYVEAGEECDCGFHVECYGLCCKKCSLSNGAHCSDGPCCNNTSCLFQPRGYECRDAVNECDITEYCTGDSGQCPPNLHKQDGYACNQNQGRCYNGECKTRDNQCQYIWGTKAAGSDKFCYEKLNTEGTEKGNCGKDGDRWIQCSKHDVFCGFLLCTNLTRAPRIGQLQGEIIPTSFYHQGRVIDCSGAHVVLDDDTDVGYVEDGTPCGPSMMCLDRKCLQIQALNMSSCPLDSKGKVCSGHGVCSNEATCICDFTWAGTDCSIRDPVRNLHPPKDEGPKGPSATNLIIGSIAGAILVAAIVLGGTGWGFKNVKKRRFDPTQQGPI


Legend:
HA-ADAM22 = molecular target: T1, HA-ADAM22; assay: immunostaining of cells or tissue; COS7 cells co-transfected with LGI1-Flag (wild type or mutant) and HA-ADAM22 or HA-ADAM23; 36 h after transfection fixed, LGI1 stained with anti-Flag before permeabilisation, ADAM with anti-HA after it; percentage of co-immunostained cells with both signals on the cell surface counted; three independent experiments; settings: partners not purified
HA-ADAM23 = molecular target: T2, HA-ADAM23; assay: as above; settings: partners not purified

Binder | percent of cells with membrane-bound LGI1 (HA-ADAM22) [%] | percent of cells with membrane-bound LGI1 (HA-ADAM23) [%]
wild type LGI1-Flag (leucine-rich, glioma-inactivated 1) (ligand, human, UniProt O95970 35-557, looked up, the protein has a signal peptide and is secreted; also called LGI1 wild type; WT; source: COS7, co-transfected with HA-ADAM22 or HA-ADAM23 (immunofluorescence); HEK293T, co-transfected, in lysate (co-IP)) KKPAKPKCPAVCTCTKDNALCENARSIPRTVPPDVISLSFVRSGFTEISEGSFLFTPSLQLLLFTSNSFDVISDDAFIGLPHLEYLFIENNNIKSISRHTFRGLKSLIHLSLANNNLQTLPKDIFKGLDSLTNVDLRGNSFNCDCKLKWLVEWLGHTNATVEDIYCEGPPEYKKRKINSLSSKDFDCIITEFAKSQDLPYQSLSIDTFSYLNDEYVVIAQPFTGKCIFLEWDHVEKTFRNYDNITGTSTVVCKPIVIETQLYVIVAQLFGGSHIYKRDSFANKFIKIQDIEILKIRKPNDIETFKIENNWYFVVADSSKAGFTTIYKWNGNGFYSHQSLHAWYRDTDVEYLEIVRTPQTLRTPHLILSSSSQRPVIYQWNKATQLFTNQTDIPNMEDVYAVKHFSVKGDVYICLTRFIGDSKVMKWGGSSFQDIQRMPSRGSMVFQPLQINNYQYAILGSDYSFTQVYNWDAEKAKFVKFQELNVQAPRSFTHVSINKRNFLFASSFKGNTQIYKHVIVDLSA | 76 | 88
LGI1-R407C (Flag-tagged) (ligand, human, UniProt O95970 35-557, looked up, LGI1 with the ADLTE-causing substitution R407C (c.1219C>T); secreted protein; also called c.1219C>T; source: COS7, co-transfected with HA-ADAM22 or HA-ADAM23 (immunofluorescence); HEK293T, co-transfected, in lysate (co-IP)) KKPAKPKCPAVCTCTKDNALCENARSIPRTVPPDVISLSFVRSGFTEISEGSFLFTPSLQLLLFTSNSFDVISDDAFIGLPHLEYLFIENNNIKSISRHTFRGLKSLIHLSLANNNLQTLPKDIFKGLDSLTNVDLRGNSFNCDCKLKWLVEWLGHTNATVEDIYCEGPPEYKKRKINSLSSKDFDCIITEFAKSQDLPYQSLSIDTFSYLNDEYVVIAQPFTGKCIFLEWDHVEKTFRNYDNITGTSTVVCKPIVIETQLYVIVAQLFGGSHIYKRDSFANKFIKIQDIEILKIRKPNDIETFKIENNWYFVVADSSKAGFTTIYKWNGNGFYSHQSLHAWYRDTDVEYLEIVRTPQTLRTPHLILSSSSQCPVIYQWNKATQLFTNQTDIPNMEDVYAVKHFSVKGDVYICLTRFIGDSKVMKWGGSSFQDIQRMPSRGSMVFQPLQINNYQYAILGSDYSFTQVYNWDAEKAKFVKFQELNVQAPRSFTHVSINKRNFLFASSFKGNTQIYKHVIVDLSA | 36 | 29
LGI1-R474Q (Flag-tagged) (ligand, human, UniProt O95970 35-557, looked up, LGI1 with the ADLTE-causing substitution R474Q (c.1421G>A); secreted protein; also called c.1421G>A; source: COS7, co-transfected with HA-ADAM22 or HA-ADAM23 (immunofluorescence); HEK293T, co-transfected, in lysate (co-IP)) KKPAKPKCPAVCTCTKDNALCENARSIPRTVPPDVISLSFVRSGFTEISEGSFLFTPSLQLLLFTSNSFDVISDDAFIGLPHLEYLFIENNNIKSISRHTFRGLKSLIHLSLANNNLQTLPKDIFKGLDSLTNVDLRGNSFNCDCKLKWLVEWLGHTNATVEDIYCEGPPEYKKRKINSLSSKDFDCIITEFAKSQDLPYQSLSIDTFSYLNDEYVVIAQPFTGKCIFLEWDHVEKTFRNYDNITGTSTVVCKPIVIETQLYVIVAQLFGGSHIYKRDSFANKFIKIQDIEILKIRKPNDIETFKIENNWYFVVADSSKAGFTTIYKWNGNGFYSHQSLHAWYRDTDVEYLEIVRTPQTLRTPHLILSSSSQRPVIYQWNKATQLFTNQTDIPNMEDVYAVKHFSVKGDVYICLTRFIGDSKVMKWGGSSFQDIQRMPSQGSMVFQPLQINNYQYAILGSDYSFTQVYNWDAEKAKFVKFQELNVQAPRSFTHVSINKRNFLFASSFKGNTQIYKHVIVDLSA | 13 | 23
LGI1-S473L (Flag-tagged) (ligand, human, UniProt O95970 35-557, looked up, LGI1 with the ADLTE-causing substitution S473L (c.1418C>T); secreted protein; also called c.1418C>T; source: COS7, co-transfected with HA-ADAM22 or HA-ADAM23 (immunofluorescence); HEK293T, co-transfected, in lysate (co-IP)) KKPAKPKCPAVCTCTKDNALCENARSIPRTVPPDVISLSFVRSGFTEISEGSFLFTPSLQLLLFTSNSFDVISDDAFIGLPHLEYLFIENNNIKSISRHTFRGLKSLIHLSLANNNLQTLPKDIFKGLDSLTNVDLRGNSFNCDCKLKWLVEWLGHTNATVEDIYCEGPPEYKKRKINSLSSKDFDCIITEFAKSQDLPYQSLSIDTFSYLNDEYVVIAQPFTGKCIFLEWDHVEKTFRNYDNITGTSTVVCKPIVIETQLYVIVAQLFGGSHIYKRDSFANKFIKIQDIEILKIRKPNDIETFKIENNWYFVVADSSKAGFTTIYKWNGNGFYSHQSLHAWYRDTDVEYLEIVRTPQTLRTPHLILSSSSQRPVIYQWNKATQLFTNQTDIPNMEDVYAVKHFSVKGDVYICLTRFIGDSKVMKWGGSSFQDIQRMPLRGSMVFQPLQINNYQYAILGSDYSFTQVYNWDAEKAKFVKFQELNVQAPRSFTHVSINKRNFLFASSFKGNTQIYKHVIVDLSA | 3 | 16
